Values quoted from earlier work in paper PMC11809415, “Structure of the F-tractin–F-actin complex” (The Journal of Cell Biology, 2025).
Values joined by “and” are separate entries in the source; they are usually repeats but may differ in a detail not shown here. Equal entries are not always repeated.

Biological target: F-actin (Oryctolagus cuniculus) (UniProt P68135)

Question: With Lifeact (from UniProt Q08641) as the substance, how does the Kd read?
Answer: 14.9 µM and 5.8 µM
